Test results taken from IntAct's records for PubMed 22835334.

B1: Huntingtin-interacting protein 1 (Homo sapiens), O00291 (parent)
chain: MDRMASSMKQVPNPLPKVLSRRGVGAGLEAAERESFERTQTVSINKAINTQEVAVKEKHARTCILGTHHEKGAQTFWSVVNRLPLSSNAVLCWKFCHVFHKLLRDGHPNVLKDSLRYRNELSDMSRMWGHLSEGYGQLCSIYLKLLRTKMEYHTKNPRFPGNLQMSDRQLDEAGESDVNNFFQLTVEMFDYLECELNLFQTVFNSLDMSRSVSVTAAGQCRLAPLIQVILDCSHLYDYTVKLLFKLHSCLPADTLQGHRDRFMEQFTKLKDLFYRSSNLQYFKRLIQIPQLPENPPNFLRASALSEHISPVVVIPAEASSPDSEPVLEKDDLMDMDASQQNLFDNKFDDIFGSSFSSDPFNFNSQNGVNKDEKDHLIERLYREISGLKAQLENMKTESQRVVLQLKGHVSELEADLAEQQHLRQQAADDCEFLRAELDELRRQREDTEKAQRSLSEIERKAQANEQRYSKLKEKYSELVQNHADLLRKNAEVTKQVSMARQAQVDLEREKKELEDSLERISDQGQRKTQEQLEVLESLKQELATSQRELQVLQGSLETSAQSEANWAAEFAELEKERDSLVSGAAHREEELSALRKELQDTQLKLASTEESMCQLAKDQRKMLLVGSRKAAEQVIQDALNQLEEPPLISCAGSADHLLSTVTSISSCIEQLEKSWSQYLACPEDISGLLHSITLLAHLTSDAIAHGATTCLRAPPEPADSLTEACKQYGRETLAYLASLEEEGSLENADSTAMRNCLSKIKAIGEELLPRGLDIKQEELGDLVDKEMAATSAAIETATARIEEMLSKSRAGDTGVKLEVNERILGCCTSLMQAIQVLIVASKDLQREIVESGRGTASPKEFYAKNSRWTEGLISASKAVGWGATVMVDAADLVVQGRGKFEELMVCSHEIAASTAQLVAASKVKADKDSPNLAQLQQASRGVNQATAGVVASTISGKSQIEETDNMDFSSMTLTQIKRQEMDSQVRVLELENELQKERQKLGELRKKHYELAGVAEGWEEGTEASPPTLQEVVTEKE

Variants of: B1
Settings: with hd_human HTT

Row | Variant | effect of a mutation on the interaction
1 | T528L | increasing interaction
2 | K510L | increasing interaction
